Measurements published in patent publication US7414113B2, “Antibody that specifically binds to Candida kefyr Cytosine deaminase” (Onyx Pharmaceuticals, Inc., priority 2002, dated 2008).
Where a chain is given by its changes, count along the chain named. In names and notes the source's numbering stands. Entries after “also recorded” stand apart in the source; their conditions may differ.

Tests used:
[1] = system: HEK 293 cells; assay: Expression of CD constructs, anti-FLAG Western blot of cell lysate; format: cell-based, Human; conditions: transiently transfected HEK 293 cells
Text: Human embryonic kidney cells (HEK 293 cells) were transiently transfected with one of these constructs: CK-CD-FLAG, CK-CD, E-CD-FLAG, E-CD or vector alone (pCMV-tag4C). […] Cells co-transfected with a construct and a GFP containing plasmid indicated approximately equivalent levels of transfection.
The experimental details are as follows: 293 cells in 10 cm dishes were transfected with 10 or 15 ÿg of CD constructs using FuGene® 6 (ROCHE™) at a DNA/FuGene® ratio of 1:3. No carrier DNA was used. Cell lysates were collected in 1 ml of lysis buffer (20 mM Tris-Cl, pH8, 150 mM NaCl, 1% Triton X-100) after 48 hours by three freeze/thaw cycles using dry ice for 10 minutes and room temperature for 10 minutes.
30 μl of cell lysate was separated by 12% SDS-PAGE, transferred to membrane and then Western blotted with anti-flag monoclonal antibody at a dilution of 1:5000 (SIGMA™). The membranes were incubated with HRP conjugated goat-anti-mouse secondary antibody (1:10000, AMERSHAM™) and the signal visualized with an ECL system (AMERSHAM™). […] Similar results were obtained (not shown) when the cells were transfected with 2 μg of each DNA construct. Experiments are planned to test a humanized C. kefyr gene and it is expected that the humanized gene will improve the expression levels.
Because the bacterial protein was more strongly expressed than the yeast protein, an attempt was made to compare the levels for the amount of expression of the two clones. In a second Western blot, 30 μl of CK-CD-FLAG was compared against increasing amounts of E-CD-FLAG. […] In the following experiments, this ratio of cell lysates is used. The presence of a fainter band at about 38 KD may indicate that some portion of the CK-CD protein dimerizes.

[2] = 5FC to 5FU conversion assay at different temperatures (14C, TLC); format: biochemical; conditions: for 5FC to 5FU conversion activity: cell lysate, 2 hour assay, FIG. 10
Method: (§1) The plate was then dried and visualized by autoradiography.
In the next experiment, we tested the activity of each enzyme against 5FC. The experiment was performed as described above, but using 5FC in place of cytosine. Further, this experiment was combined with a temperature optimization study and was performed at 4 different temperatures. […] Further, a variant with increased stability can be isolated by screening yeast grown at 37° C., as described in the Examples below.

[3] = reference 16, cited from earlier work
[4] = system: transfected cells
Method: Cytotoxicity assay—transfected cells were seeded at a density of 1×10^3 cells/well in a 96-well microtiterplate containing 100 μl of culture medium. A set of sterile stock dilutions of the 10 mg/ml 5FC solution were prepared. One day later, increasing concentrations of 5FC was added to the wells, and a control well without the prodrug was included. After 5-7 days, the cells were washed with fresh medium and cytotoxicity was assessed by trypan blue exclusion, using a hemocytometer to quantify the results.

[5] = cited from earlier work
[6] = cell lysate, 37° C., 16 hour assay, FIG. 9; listed as C. kefyr CD protein
Method: The reaction mixtures were loaded onto a TLC plate (LK5DF SILICA GEL, Cat. No. 4856-821, WHATMAN™) and resolved with 1-butanol:H2O (85:15) for 3 hours. The plate was then dried and visualized by autoradiography.
Cell lysates were assayed for cytosine to uracil conversion at 37° C. in a 16 hour assay.

[7] = Activity of CD variants (conversion of 5FC to 5FU); format: biochemical; conditions: mutant tested, versus protein of SEQ ID NO: 2
Text: “Fragments” refers to those polypeptides (or nucleic acid sequences encoding such polypeptides) retaining antigenicity, a structural domain, or an enzymatic activity of the full-length protein. The “enzymatic activity” of the CD protein is herein defined to be the conversion of 5FC to 5FU.
as §1
The specific variants listed in table 2 are synthesized by site specific mutagenesis of SEQ ID NO: 1 or SEQ ID NO: 3. […] Further, changes within the cytidine and deoxycytidylate deaminase zinc-binding region (grey box) are also expected to be less well tolerated than changes outside this region. These residues involve a change in charge as compared with the closest homolog and are in the binding region. Changes in these residues are expected to change function. Active variants are likely to be those that involve conservative changes in those residues not conserved in the 2 yeasts, particularly those outside the binding region.
Variants are expressed in E. coli and screened for activity using the assay described in example 3, or any suitable assay. Alternatively, random mutagenesis is performed and the products are similarly screened. In this manner, it will be possible to isolate variants with improved temperature stability at 37° C. and mutants with even better activity than that described herein.

B1: E-CD-FLAG: E. coli cytosine deaminase with FLAG tag (protein, UniProt P25524 2-427, looked up)
Cytosine deaminase: SNNALQTIINARLPGEEGLWQIHLQDGKISAIDAQSGVMPITENSLDAEQGLVIPPFVEPHIHLDTTQTAGQPNWNQSGTLFEGIERWAERKALLTHDDVKQRAWQTLKWQIANGIQHVRTHVDVSDATLTALKAMLEVKQEVAPWIDLQIVAFPQEGILSYPNGEALLEEALRLGADVVGAIPHFEFTREYGVESLHKTFALAQKYDRLIDVHCDEIDDEQSRFVETVAALAHHEGMGARVTASHTTAMHSYNGAYTSRLFRLLKMSGINFVANPLVNIHLQGRFDTYPKRRGITRVKEMLESGINVCFGHDDVFDPWYPLGTANMLQVLHMGLHVCQLMGYGQINDGLNLITHHSARTLNLQDYGIAAGNSANLIILPAENGFDALRRQVPVRYSVRGGKVIASTQPAQTTVYLEQPEAIDYKR
modifications: FLAG tag
With B1 the expression level [1] was “much more strongly expressed than the yeast protein” and the expression level ([1]; listed as E. coli CD-FLAG) was “expressed much more efficiently than Candida kefyr CD-FLAG”.

B2: E-CD: E. coli (bacterial) cytosine deaminase, 427 amino acids (protein, UniProt P25524 2-427, looked up)
Cytosine deaminase: B1 Cytosine deaminase
In the case of B2, the 5FU produced ([2]; 16 hours of reaction (not shown)) is given as “as much or more 5FU than the yeast protein”, the “Activity % 5FU/5FC by 0.2 μg CD in 2 h” value [3] is given as “^1616.0 ± 0.8%” and the Km [3] is given as 17.9 mM. The Vmax [3] was “^1611.7 ± 3.8 μM/min/μg enzyme”.

B3: CD-FUR1 fusion protein: Fusion of Candida kefyr CD and uracil phosphoribosyltransferase (FUR1) (protein)
chain: MAEWDQKGMDKAYEEAAIGYKEGGVPIGGCLIDNLTGEILGSGHNMRFQKGSPTLHGETSTLENAGRLKGSVYKHCTMYTTLSPCDMCTGAILLYGIGRVVIGENVNFKSPGEEYLTSRGVELKVVDDKRCIDIMKEFIEKRPEDWYEDIGEASEPFKNVYLLPQTNQLLGLYTIIRNKNTTRPDFIFYSDRIIRLLVEEGLNHLPVQKQIVETDTNENFEGVSFMGKICGVSIVRAGESMEQGLRDCCRSVRIGKILIQRDEETALPKLFYEKLPEDISERYVFLLDPMLATGGSAIMATEVLIKRGVKPERIYFLNLICSKEGIEKYHAAFPEVRIVTGALDRGLDENKYLVPGLGDFGDRYYCV
In the case of B3, the “expected activity in cytotoxicity assay” value [4] is reported as “increased activity”.

B4: S. cerevisiae FCY1: Wild type Saccharomyces cerevisiae CD protein, 158 amino acids (protein)
chain: MVTGGMASKWDQKGMDIAYEEAALGYKEGGVPIGGCLINNKDGSVLGRGHNMRFQKGSATLHGEISTLENCGRLEGKVYKDTTLYTTLSPCDMCTGAIIMYGIPRCVVGENVNFKSKGEKYLQTRGHEVVVVDDERCKKIMKQFIDERPQDWFEDIGE
In the case of B4, the “Activity % 5FU/5FC by 0.2 μg CD in 2 h” value [3] is listed as “^1677.9 ± 6.2%”, the Km [3] is listed as 0.8 mM and the Vmax [3] is listed as “^1668.0 ± 12.0 μM/min/μg enzyme”. The T½ ([5]; measured, reference 16 (value in brackets)) was “(^161) HR” and the “measured T1/2” value ([5]; thermal instability, reference 16) was 1 h.

B5: CK-CD: Wild type Candida kefyr cytosine deaminase protein, 152 amino acids, SEQ ID NO: 2 (protein)
chain: MAEWDQKGMDKAYEEAAIGYKEGGVPIGGCLIDNLTGEILGSGHNMRFQKGSPTLHGETSTLENAGRLKGSVYKHCTMYTTLSPCDMCTGAILLYGIGRVVIGENVNFKSPGEEYLTSRGVELKVVDDKRCIDIMKEFIEKRPEDWYEDIGE
With B5 the expression level [1] was “significantly lower expression levels than E. coli CD”, the “substrate preference, 5FC versus cytosine” value [2] was 5FC is a better substrate for C. kefyr CD than is the natural substrate, cytosine and the “Activity % 5FU/5FC” value ([2]; by 45 ul cell extract, 2 h) was roughly 50% by 45 ul. For the same molecule, the “5FC to 5FU conversion activity” value [2] was “much more active than CK-CD-FLAG; also recorded: more active against 5FC than the bacterial protein; also recorded: more active against 5FC than is the E. coli CD at 2 hours”, the “5FC to 5FU conversion activity” value ([2]; listed as C. kefyr CD) was “much higher in converting 5FC to 5FU” and the “5FC to 5FU conversion activity” value ([2]; listed as C. kefyr protein) was “sufficiently active at 37 °C”. For the same molecule, the “cytosine to uracil conversion activity” value [6] was “far less active against cytosine than was the E. coli CD protein” and the “increased cytotoxicity and bystander effect per unit dose of 5FC compared with the bacteria” value [4] was “up to 10 fold”.

B6: CK-CD-FLAG: Candida kefyr CD with FLAG tag, with the D33E variation (protein)
chain: B5 chain with D33E
modifications: C-terminal FLAG tag
notes: Candida kefyr CD with FLAG tag, with the D33E variation
With B6 the expression level [1] was “about ten-fold less well expressed than the E-CD-FLAG”, the “5FC to 5FU conversion activity” value [2] was “more active against 5FC than the bacterial protein” and the Activity [7] was “Mutant tested and has less activity”.
